Measured values as given in IntAct's records for PubMed 9343432.

B1: Polycomb protein Scm (Drosophila melanogaster (Fruit fly)), Q9VHA0 (parent)
chain: MSGGRDSSTSSGSNSAAPGASTNATSSASASASSTSTSASPGSTTSPASTQRQRGRPAKRATCTWCGEGKLPLQYVLPTQTGKKEFCSETCIAEFRKAYSKGACTQCDNVIRDGAPNKEFCSIMCMNKHQKKNCSTRHSGGSASGKGLAESERKLLASGAPAPTGPFQYESFHVFDWDAYLEETGSEAAPAKCFKQAQNPPNNDFKIGMKLEALDPRNVTSTCIATVVGVLGSRLRLRLDGSDSQNDFWRLVDSTEIHAIGHCEKNGGMLQPPLGFRMNASSWPGYLCKILNNAMVAPEEIFQPEPPEPEENLFKVGQKLEAVDKKNPQLICCATVDAIKDDQIHVTFDGWRGAFDYWCNYRSRDIFPAGWCARSCHPMQPPGHKSRMDSSSSKQRCPRPRYTVVAESEAMVPASPATAHFHPNCKGGPFINNSKLPCMVTGPTYQTLAKLCLQEVLAASTDTQQLSKLLFALEGDVHIVTAAGKNFTVKIPSPMRMKDDESLAQFIETLCTTCRACANLISLVHETEECKKCANSRKRQLTQSATPPSSPVLADKRNRQSNSATTSPSEKIIKQELAVKSPVESKSKTSTNNGKEPASQQNSNHSLNNNNNSASKSSNKVVIKSEPNGANAQTSSTTQALRKVRFQHHANTNTNSSATNGNQDTSQTTHVSTSHCSSSSTSSSTSLAGGSANTSTIGKYLAPLVAEVHPEQANVKPSNSYYKSPTTLSSSASLPTSVSTPFTGCQSASSTALAAGGVTAAKAATAPAGAAATAGASPSYTAITSPVSTPTSALANSHLRSQPIDWTIEEVIQYIESNDNSLAVHGDLFRKHEIDGKALLLLNSEMMMKYMGLKLGPALKICNLVNKVNGRRNNLAL
B2: Polyhomeotic-proximal chromatin protein (Drosophila melanogaster (Fruit fly)), P39769 (parent)
chain: MDRRALKFMQKRADTESDTTTPVSTTASQGISASAILAGGTLPLKDNSNIREKPLHHNYNHNNNNSSQHSHSHQQQQQQQVGGKQLERPLKCLETLAQKAGITFDEKYDVASPPHPGIAQQQATSGTGPATGSGSVTPTSHRHGTPPTGRRQTHTPSTPNRPSAPSTPNTNCNSIARHTSLTLEKAQNPGQQVAATTTVPLQISPEQLQQFYASNPYAIQVKQEFPTHTTSGSGTELKHATNIMEVQQQLQLQQQLSEANGGGAASAGAGGAASPANSQQSQQQQHSTAISTMSPMQLAAATGGVGGDWTQGRTVQLMQPSTSFLYPQMIVSGNLLHPGGLGQQPIQVITAGKPFQGNGPQMLTTTTQNAKQMIGGQAGFAGGNYATCIPTNHNQSPQTVLFSPMNVISPQQQQNLLQSMAAAAQQQQLTQQQQQFNQQQQQQLTQQQQQLTAALAKVGVDAQGKLAQKVVQKVTTTSSAVQAATGPGSTGSTQTQQVQQVQQQQQQTTQTTQQCVQVSQSTLPVGVGGQSVQTAQLLNAGQAQQMQIPWFLQNAAGLQPFGPNQIILRNQPDGTQGMFIQQQPATQTLQTQQNQIIQCNVTQTPTKARTQLDALAPKQQQQQQQVGTTNQTQQQQLAVATAQLQQQQQQLTAAALQRPGAPVMPHNGTQVRPASSVSTQTAQNQSLLKAKMRNKQQPVRPALATLKTEIGQVAGQNKVVGHLTTVQQQQQATNLQQVVNAAGNKMVVMSTTGTPITLQNGQTLHAATAAGVDKQQQQLQLFQKQQILQQQQMLQQQIAAIQMQQQQAAVQAQQQQQQQVSQQQQVNAQQQQAVAQQQQAVAQAQQQQREQQQQVAQAQAQHQQALANATQQILQVAPNQFITSHQQQQQQQLHNQLIQQQLQQQAQAQVQAQVQAQAQQQQQQREQQQNIIQQIVVQQSGATSQQTSQQQQHHQSGQLQLSSVPFSVSSSTTPAGIATSSALQAALSASGAIFQTAKPGTCSSSSPTSSVVTITNQSSTPLVTSSTVASIQQAQTQSAQVHQHQQLISATIAGGTQQQPQGPPSLTPTTNPILAMTSMMNATVGHLSTAPPVTVSVTSTAVTSSPGQLVLLSTASSGGGGSIPATPTKETPSKGPTATLVPIGSPKTPVSGKDTCTTPKSSTPATVSASVEASSSTGEALSNGDASDRSSTPSKGATTPTSKQSNAAVQPPSSTTPNSVSGKEEPKLATCGSLTSATSTSTTTTITNGIGVARTTASTAVSTASTTTTSSGTFITSCTSTTTTTTSSISNGSKDLPKAMIKPNVLTHVIDGFIIQEANEPFPVTRQRYADKDVSDEPPKKKATMQEDIKLSGIASAPGSDMVACEQCGKMEHKAKLKRKRYCSPGCSRQAKNGIGGVGSGETNGLGTGGIVGVDAMALVDRLDEAMAEEKMQTEATPKLSESFPILGASTEVPPMSLPVQAAISAPSPLAMPLGSPLSVALPTLAPLSVVTSGAAPKSSEVNGTDRPPISSWSVDDVSNFIRELPGCQDYVDDFIQQEIDGQALLLLKEKHLVNAMGMKLGPALKIVAKVESIKEVPPPGEAKDPGAQ

Variants of: B1
Details: with php_drome ph-p, P39769

Variant	effect of a mutation on the interaction
G836S	decreasing interaction

Variants of: B2
Details: with scm_drome Scm, Q9VHA0

Variant	effect of a mutation on the interaction
G1562A	decreasing interaction
W1513A	decreasing interaction
